Measurements reported in US20210077592A1, “COMPOSITION TO PREVENT INTESTINAL DAMAGE” (FUSION FARM S.R.L. SEMPLIFICATA, priority 2017, published 2021).

Tests used:
[1] = tested on: Caco-2 cells; test: Lucifer Yellow (LY) assay of paracellular permeability in Caco-2 intestinal damage model; format: cell-based
Experimental: A protocol was developed based on Caco-2 cell inserts model (CACOREADY™ cells, lot no. 24 676 101716 and no. 24 680 111416, Readycell manufacturer) consisting in two steps:
1. Induction of epithelial damage (40 h incubation in glutamine free medium followed by stress induced by 60 mM ethanol for 4 h)
2. Evaluation of the single products first, and then applied in combination during stress induced by the absence of glutamine (60 h), and with subsequent stress induced by ethanol, to evaluate the efficacy in preventing damage. […]
Cells without damage induction (NC=without damage) and with damage induction (PC) were evaluated with the Lucifer Yellow (LY) assay, which verifies the integrity of the cellular junctions in presence of the test substance. […]
According to the experimental protocol, to evaluate the efficacy of the composition of the invention in damage prevention, sodium butyrate (2 mM concentration) and lactoferrin (400 μg/ml concentration), either alone or in combination, were applied on Caco-2 cells during stress induced by absence of glutamine, increasing the time of said deprivation, with respect to the conditions tested during the development of the model, and therefore of stress induction, to 60 hours, to make more evident differences in cells behavior in the different treatment situations. […] The parameters were evaluated at the end. […]

[2] = tested on: Caco-2 cells; test: Electron Microscopy (SEM) of microvilli of Caco-2 cells after damage induction; format: cell-based; conditions: pretreatment 60 h without glutamine, then 60 mM ethanol 4 h, 750x-10000x
Experimental: The same cells without damage induction (NC) and with damage induction (PC), as indicated above, were finally evaluated by Electron Microscopy (SEM) at different magnifications.
(§1) According to the experimental protocol, to evaluate the efficacy of the composition of the invention in damage prevention, sodium butyrate (2 mM concentration) and lactoferrin (400 μg/ml concentration), either alone or in combination, were applied on Caco-2 cells during stress induced by absence of glutamine, increasing the time of said deprivation, with respect to the conditions tested during the development of the model, and therefore of stress induction, to 60 hours, to make more evident differences in cells behavior in the different treatment situations. At the end of 60 hours, the products were removed, and damage was induced for 4 h with 60 mM ethanol. The parameters were evaluated at the end.
The same cells were finally evaluated also by Electron Microscopy SEM, at various magnifications.

[3] = tested on: Occludin and Zonula Occludens in Caco-2 cells; test: Fluorescence immunolabeling of Occludin and Zonula Occludens in Caco-2 cells after damage induction; format: cell-based; conditions: pretreatment 60 h without glutamine, then 60 mM ethanol 4 h
Experimental: As it can be seen by FIG. 1, the damage induced an increase in permeability. The same cells without damage induction (NC) and with damage induction (PC), as indicated above, were further evaluated by fluorescence immunolabeling of Occludina and Zonula Occludens (proteins present in the intestinal membrane intracellular junctions).
as §1
To confirm the observed behavior, an evaluation using fluorescence immunolabeling of Occludin and Zonula Occludens was also performed.

[4] = Solubility of lactoferrin in aqueous solution in the presence of sodium butyrate; format: physicochemical; conditions: with or without added sodium butyrate
Experimental: Various solutions, with increasing ratios between sodium butyrate amount and lactoferrin amount, were prepared to verify the possible effect of sodium butyrate addition on lactoferrin solubility in aqueous solution.
In particular, ten different mixtures were prepared, whose weight rations are set out in the following Table 1, and the presence of undissolved body of lactoferrin was observed as a function of the increasing amount of sodium butyrate added to the solution.

B1: lactoferrin (protein, UniProt P02788 20-710, looked up)
Lactotransferrin: GRRRSVQWCAVSQPEATKCFQWQRNMRKVRGPPVSCIKRDSPIQCIQAIAENRADAVTLDGGFIYEAGLAPYKLRPVAAEVYGTERQPRTHYYAVAVVKKGGSFQLNELQGLKSCHTGLRRTAGWNVPIGTLRPFLNWTGPPEPIEAAVARFFSASCVPGADKGQFPNLCRLCAGTGENKCAFSSQEPYFSYSGAFKCLRDGAGDVAFIRESTVFEDLSDEAERDEYELLCPDNTRKPVDKFKDCHLARVPSHAVVARSVNGKEDAIWNLLRQAQEKFGKDKSPKFQLFGSPSGQKDLLFKDSAIGFSRVPPRIDSGLYLGSGYFTAIQNLRKSEEEVAARRARVVWCAVGEQELRKCNQWSGLSEGSVTCSSASTTEDCIALVLKGEADAMSLDGGYVYTAGKCGLVPVLAENYKSQQSSDPDPNCVDRPVEGYLAVAVVRRSDTSLTWNSVKGKKSCHTAVDRTAGWNIPMGLLFNQTGSCKFDEYFSQSCAPGSDPRSNLCALCIGDEQGENKCVPNSNERYYGYTGAFRCLAENAGDVAFVKDVTVLQNTDGNNNEAWAKDLKLADFALLCLDGKRKPVTEARSCHLAMAPNHAVVSRMDKVERLKQVLLHQQAKFGRNGSDCPDKFCLFQSETKNLLFNDNTECLARLHGKTTYEKYLGPQYVAGITNLKKCSTSPLLEACEFLRK
notes: antimicrobial and iron-carrying glycoprotein; B=400 μg/ml lactoferrin
With B1 the “reduction in LY flux with respect to positive control (PC)” value ([1]; product applied during 60 h glutamine deprivation, then 60 mM ethanol 4 h, 2 mM sodium butyrate and/or 400 μg/ml lactoferrin) was “about 12%”, the “permeability (LY), result in words” value ([1]; treatment at the same time as damage induction) was “not substantially changed compared to the negative control” and the “effect on microvilli / villous atrophy by SEM, result in words” value [2] was “positive effect on the villi functionality”. The “fluorescence intensity / expression of tight junction proteins (Occludin, Zonula Occludens), result in words” value [3] was “good level of expression of the tight junctions' markers” and the “dissolution of lactoferrin in aqueous solution, result in words” value [4] was “completely undissolved body in suspension”.
